Laboratory results published in PMC12607617, “Self-resistance mechanism to acyldepsipeptide antibiotics in the Streptomyces producer” (mBio, 2025).

Target: the molecule itself
Experiment: SEC; purified S. hawaiiensis ClpP1, alone or with ClpP_(ADEP), pre-incubated with ADEP1

B1: Streptomyces hawaiiensis ClpP1, untagged (enzyme, Streptomyces hawaiiensis NRRL 15010, UniProt A0A5B9BGY8 1-219, looked up)
chain: MRRPGAVVRRAGGYVTNLMPSAAGEPSIGGGLGDQVYNRLLNERIIFLGQPVDDDIANKITAQLLLLASDPEKDIYLYINSPGGSITAGMAIYDTMQYIKNDVVTIAMGLAASMGQFLLSAGTPGKRFALPNAEILIHQPSAGLAGSASDIKIHAERLLHTKKRMAELTSQHTGQTIEQITRDSDRDRWFDAFEAKEYGLIDDVMTTAAGMPGGGGTGA
notes: ClpP1, proteolytic subunit of the Clp protease, Streptomyces hawaiiensis NRRL 15010; Printed as untagged in the pull-down; also called shClpP1
  stoichiometry N: 14
